# Where “and” joins values, the source holds several entries; their conditions need not be identical. Equal entries are not always repeated.
# B1: BSA抗体B2 (antibody, V domains shown)
# VH: VKLQESGGGLVKPGGSLKLSCAASGFTFSLYDESWVRQTPEKRLEWVAEIFLGVYRYVPESKVRFTMSRDNAKNTLYLQMSSLRSEDTAMYYCVRLCYWEPEVKKCWGQGTTVTVSS
# VL: DIELTQSPLTLSVTIGQPASISCESDLSLKESLDWLLQRPGQSPKRLIYEDLNADCGVPDRFTGSGSGTDSTLKISRVEAEDLGVYYCEIKGTFRWSFGGGTKLEIK
# Columns and labels:
# 牛血清白蛋白(BSA) (bovine) [1] = target: 牛血清白蛋白(BSA) (bovine) (UniProt P02769); experiment: ELISA, BSA coated at 1 ug/ml, biotin-labelled antibody at dilution 512K, HRP-avidin
# 牛血清白蛋白(BSA) (bovine) [2] = target: 牛血清白蛋白(BSA) (bovine) (UniProt P02769); experiment: sandwich ELISA, coat B2 2 ug/ml, BSA 12 ng/ml, detection biotin-B6 0.2 ug/ml
# 牛血清白蛋白(BSA) (bovine) [3] = target: 牛血清白蛋白(BSA) (bovine) (UniProt P02769); experiment: sandwich ELISA, coat B2 2 ug/ml, BSA 1 ng/ml, detection biotin-B5 0.2 ug/ml
# 牛血清白蛋白(BSA) (bovine) [4] = target: 牛血清白蛋白(BSA) (bovine) (UniProt P02769); experiment: sandwich ELISA, coat B2 2 ug/ml, BSA 1 ng/ml (positive sample), detection biotin-B6 0.2 ug/ml
# 牛血清白蛋白(BSA) (bovine) [5] = target: 牛血清白蛋白(BSA) (bovine) (UniProt P02769); experiment: indirect ELISA, BSA coated at 1 ug/ml, purified antibody at dilution 256K, HRP goat anti-mouse IgG
# 牛血清白蛋白(BSA) (bovine) [6] = target: 牛血清白蛋白(BSA) (bovine) (UniProt P02769); experiment: indirect ELISA, BSA coated at 1 ug/ml, purified antibody at dilution 1024K, HRP goat anti-mouse IgG
# 牛血清白蛋白(BSA) (bovine) [7] = target: 牛血清白蛋白(BSA) (bovine) (UniProt P02769); experiment: indirect ELISA, BSA coated at 1 ug/ml, purified antibody at dilution 32K, HRP goat anti-mouse IgG
# 牛血清白蛋白(BSA) (bovine) [8] = target: 牛血清白蛋白(BSA) (bovine) (UniProt P02769); experiment: sandwich ELISA, coat B2 2 ug/ml, BSA 1.5 ng/ml, detection biotin-B6 0.2 ug/ml, mean of A and B
# 牛血清白蛋白(BSA) (bovine) [9] = target: 牛血清白蛋白(BSA) (bovine) (UniProt P02769); experiment: sandwich ELISA, coat B2 2 ug/ml, BSA 6 ng/ml, detection biotin-B6 0.2 ug/ml, mean of A and B
# 牛血清白蛋白(BSA) (bovine) [10] = target: 牛血清白蛋白(BSA) (bovine) (UniProt P02769); experiment: ELISA, BSA coated at 1 ug/ml, biotin-labelled antibody at dilution 1K, HRP-avidin
# HEK293细胞裂解液 [11] = experiment: sandwich ELISA, coat B2, detection biotin-B6, lysate 15.63 ug/ml
# CHO细胞裂解液 [12] = experiment: as above
# Vero细胞裂解液 [13] = experiment: as above
# 牛血清白蛋白(BSA) (bovine) [14] = target: 牛血清白蛋白(BSA) (bovine) (UniProt P02769); experiment: sandwich ELISA, coat B2 2 ug/ml, BSA 1.5 ng/ml, detection biotin-B6 0.2 ug/ml
# 牛血清白蛋白(BSA) (bovine) [15] = target: 牛血清白蛋白(BSA) (bovine) (UniProt P02769); experiment: ELISA, BSA coated at 1 ug/ml, biotin-labelled antibody at dilution 64K, HRP-avidin
# 牛血清白蛋白(BSA) (bovine) [16] = target: 牛血清白蛋白(BSA) (bovine) (UniProt P02769); experiment: sandwich ELISA, coat B2 2 ug/ml, BSA 3 ng/ml, detection biotin-B6 0.2 ug/ml, mean of A and B
# 牛血清白蛋白(BSA) (bovine) [17] = target: 牛血清白蛋白(BSA) (bovine) (UniProt P02769); experiment: sandwich ELISA, coat B2 2 ug/ml, BSA 6 ng/ml, detection biotin-B6 0.2 ug/ml
# 牛血清白蛋白(BSA) (bovine) [18] = target: 牛血清白蛋白(BSA) (bovine) (UniProt P02769); experiment: indirect ELISA, BSA coated at 1 ug/ml, purified antibody at dilution 4K, HRP goat anti-mouse IgG
# 牛血清白蛋白(BSA) (bovine) [19] = target: 牛血清白蛋白(BSA) (bovine) (UniProt P02769); experiment: ELISA, BSA coated at 1 ug/ml, biotin-labelled antibody at dilution 8K, HRP-avidin
# 牛血清白蛋白(BSA) (bovine) [20] = target: 牛血清白蛋白(BSA) (bovine) (UniProt P02769); experiment: ELISA, BSA coated at 1 ug/ml, biotin-labelled antibody at dilution 4K, HRP-avidin
# 牛血清白蛋白(BSA) (bovine) [21] = target: 牛血清白蛋白(BSA) (bovine) (UniProt P02769); experiment: sandwich ELISA, coat B2 2 ug/ml, BSA 1 ng/ml, detection biotin-B1 0.2 ug/ml
# 牛血清白蛋白(BSA) (bovine) [22] = target: 牛血清白蛋白(BSA) (bovine) (UniProt P02769); experiment: sandwich ELISA, coat B2 2 ug/ml, BSA 48 ng/ml, detection biotin-B6 0.2 ug/ml, mean of A and B
# 牛血清白蛋白(BSA) (bovine) [23] = target: 牛血清白蛋白(BSA) (bovine) (UniProt P02769); experiment: sandwich ELISA, coat B2 2 ug/ml, BSA 24 ng/ml, detection biotin-B6 0.2 ug/ml
# 牛血清白蛋白(BSA) (bovine) [24] = target: 牛血清白蛋白(BSA) (bovine) (UniProt P02769); experiment: ELISA, BSA coated at 1 ug/ml, biotin-labelled antibody at dilution 32K, HRP-avidin
# 牛血清白蛋白(BSA) (bovine) [25] = target: 牛血清白蛋白(BSA) (bovine) (UniProt P02769); experiment: indirect ELISA, BSA coated at 1 ug/ml, purified antibody at dilution 2K, HRP goat anti-mouse IgG
# 牛血清白蛋白(BSA) (bovine) [26] = target: 牛血清白蛋白(BSA) (bovine) (UniProt P02769); experiment: ELISA, BSA coated at 1 ug/ml, biotin-labelled antibody at dilution 1024K, HRP-avidin
# 牛血清白蛋白(BSA) (bovine) [27] = target: 牛血清白蛋白(BSA) (bovine) (UniProt P02769); experiment: indirect ELISA, BSA coated at 1 ug/ml, purified antibody at dilution 64K, HRP goat anti-mouse IgG
# HEK293细胞裂解液 [28] = experiment: sandwich ELISA, coat B2, detection biotin-B6, lysate 7.81 ug/ml
# CHO细胞裂解液 [29] = experiment: as above
# Vero细胞裂解液 [30] = experiment: as above
# 牛血清白蛋白(BSA) (bovine) [31] = target: 牛血清白蛋白(BSA) (bovine) (UniProt P02769); experiment: indirect ELISA, BSA coated at 1 ug/ml, purified antibody at dilution 16K, HRP goat anti-mouse IgG
# 牛血清白蛋白(BSA) (bovine) [32] = target: 牛血清白蛋白(BSA) (bovine) (UniProt P02769); experiment: ELISA, BSA coated at 1 ug/ml, biotin-labelled antibody at dilution 16K, HRP-avidin
# 牛血清白蛋白(BSA) (bovine) [33] = target: 牛血清白蛋白(BSA) (bovine) (UniProt P02769); experiment: sandwich ELISA, coat B2 2 ug/ml, BSA 0.75 ng/ml, detection biotin-B6 0.2 ug/ml, mean of A and B
# Sequence of UniProt P02769 (P02769 25-607): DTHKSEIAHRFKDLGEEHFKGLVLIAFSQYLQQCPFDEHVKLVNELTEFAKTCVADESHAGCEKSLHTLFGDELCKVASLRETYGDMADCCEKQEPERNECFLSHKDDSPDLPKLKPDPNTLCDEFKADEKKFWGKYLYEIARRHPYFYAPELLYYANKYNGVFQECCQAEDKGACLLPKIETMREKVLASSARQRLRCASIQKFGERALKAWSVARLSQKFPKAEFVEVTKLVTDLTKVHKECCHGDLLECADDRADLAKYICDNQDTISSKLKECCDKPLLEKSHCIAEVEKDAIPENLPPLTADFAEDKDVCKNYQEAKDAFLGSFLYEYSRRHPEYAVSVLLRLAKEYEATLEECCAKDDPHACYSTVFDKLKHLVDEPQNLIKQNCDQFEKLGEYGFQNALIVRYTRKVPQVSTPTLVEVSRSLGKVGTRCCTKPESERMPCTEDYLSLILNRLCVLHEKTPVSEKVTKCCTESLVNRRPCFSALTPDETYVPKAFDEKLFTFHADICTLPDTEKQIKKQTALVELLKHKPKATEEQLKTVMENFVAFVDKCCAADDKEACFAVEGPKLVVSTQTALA
binder,measurement,setting,value
B1,OD450,牛血清白蛋白(BSA) (bovine) [1],0.308
same,OD450,牛血清白蛋白(BSA) (bovine) [2],1.01 and 1
same,OD450,牛血清白蛋白(BSA) (bovine) [3],0.312 and 0.315
same,OD450,牛血清白蛋白(BSA) (bovine) [4],0.392 and 0.389
same,OD450,牛血清白蛋白(BSA) (bovine) [5],0.208
same,OD450,牛血清白蛋白(BSA) (bovine) [6],0.144
same,OD450,牛血清白蛋白(BSA) (bovine) [7],0.403
same,OD450 (平均值),牛血清白蛋白(BSA) (bovine) [8],0.408
same,OD450 (平均值),牛血清白蛋白(BSA) (bovine) [9],0.688
same,OD450,牛血清白蛋白(BSA) (bovine) [10],2.3
same,OD450,HEK293细胞裂解液 [11],0.136
same,OD450,CHO细胞裂解液 [12],0.141
same,OD450,Vero细胞裂解液 [13],0.136
same,OD450,牛血清白蛋白(BSA) (bovine) [14],0.404 and 0.412
same,OD450,牛血清白蛋白(BSA) (bovine) [15],1.12
same,OD450 (平均值),牛血清白蛋白(BSA) (bovine) [16],0.512
same,OD450,牛血清白蛋白(BSA) (bovine) [17],0.684 and 0.692
same,OD450,牛血清白蛋白(BSA) (bovine) [18],0.9
same,OD450,牛血清白蛋白(BSA) (bovine) [19],1.81
same,OD450,牛血清白蛋白(BSA) (bovine) [20],2.02
same,OD450,牛血清白蛋白(BSA) (bovine) [21],0.312 and 0.315
same,OD450 (平均值),牛血清白蛋白(BSA) (bovine) [22],2.21
same,OD450,牛血清白蛋白(BSA) (bovine) [23],1.51 and 1.5
same,OD450,牛血清白蛋白(BSA) (bovine) [24],1.22
same,OD450,牛血清白蛋白(BSA) (bovine) [25],1.69
same,OD450,牛血清白蛋白(BSA) (bovine) [26],0.175
same,OD450,牛血清白蛋白(BSA) (bovine) [27],0.335
same,OD450,HEK293细胞裂解液 [28],0.132
same,OD450,CHO细胞裂解液 [29],0.136
same,OD450,Vero细胞裂解液 [30],0.138
same,OD450,牛血清白蛋白(BSA) (bovine) [31],0.537
same,OD450,牛血清白蛋白(BSA) (bovine) [32],1.6
same,OD450 (平均值),牛血清白蛋白(BSA) (bovine) [33],0.303

# Source: patent publication CN114591430A
